± gives the standard deviation of the averaged measurements.
System: ATP
Assay: switch fluorescence ratio, 500 uM ATP over buffer (Cy3 cluster intensity, sum of 5 cycles each) (fold (ratio)); higher = stronger signal-on switching upon ATP binding; sequences stand for … in TCGTCGGCAGCGTCAGATGTGTATAAGAGACAGTTTTTTTTTTTTTTTTTTTTTTTTT…TC
Conditions: aptamer strand: ATP DNA aptamer (quencher-CACCTGGGGGAGTATTGCGGAGGAAGG + anchor), 100 nM annealed; ATP concentration: 500 uM
Outline: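 Cy3-labelled switching-strand clusters on a modified Illumina MiSeq flow-cell were annealed to 100 nM quencher-labelled ATP aptamer, imaged in selection buffer, then imaged after 15 min with 500 uM ATP at 22 °C. Five buffer/ATP cycles ran, with NaOH stripping and re-annealing between them. The fluorescence ratio is summed target-cycle over summed buffer-cycle Cy3 intensity per cluster, averaged per switch-domain sequence. Clusters outside 100-1000 RFU were excluded.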
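Further: ATP exposure 15 min at 22 °C before imaging.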

| Sequence | switch fluorescence ratio |
| --- | --- |
| TTATGATAGG | 1.016 ± 0.0079 |
| TTATGCCGGT | 1.02 ± 0.068 |
| TTATGCTGTT | 1 ± 0.011 |
| TTATGGAAGT | 0.989 ± 0.025 |
| TTATGGAATT | 1.01 ± 0.044 |
| TTATGGAGCA | 1.09 ± 0.09 |
| TTATGGAGTT | 0.987 ± 0.01 |
| TTATGGCAGA | 1.009 ± 0.01 |
| TTATGGCGGT | 1.063 ± 0.0057 |
| TTATGGCTTC | 0.993 ± 0.029 |
| TTATGGGAGT | 0.966 ± 0.026 |
| TTATGGGCGT | 1.02 ± 0.02 |
| TTATGGGGAT | 0.988 ± 0.019 |
| TTATGGGTAA | 1.03 ± 0.034 |
| TTATGGGTTG | 1.002 ± 0.0039 |
| TTATGGTACA | 0.98 ± 0.019 |
| TTATGTATAT | 1.007 ± 0.0069 |
| TTATGTCGAA | 0.98 ± 0.017 |
| TTATGTCGAG | 0.978 ± 0.034 |
| TTATGTCTTG | 1.01 ± 0.019 |
| TTATGTGGGC | 0.97 ± 0.022 |
| TTATGTTTG | 1.012 ± 0.0031 |
| TTATGTTTTA | 0.9965 ± 0.0046 |
| TTATTAATCG | 0.963 ± 0.081 |
| TTATTAATGT | 1.02 ± 0.021 |
| TTATTAGACG | 0.976 ± 0.059 |

| Sequence | switch fluorescence ratio |
| --- | --- |
| TTATTATAGA | 0.998 ± 0.021 |
| TTATTCCCAG | 1.016 ± 0.0014 |
| TTATTCCTTT | 0.978 ± 0.042 |
| TTATTCGGGG | 0.968 ± 0.054 |
| TTATTCGTTT | 0.98 ± 0.03 |
| TTATTGAATT | 0.998 ± 0.045 |
| TTATTGACGA | 0.992 ± 0.021 |
| TTATTGATTT | 1.017 ± 0.0021 |
| TTATTGCTTT | 1 ± 0.036 |
| TTATTGGGCA | 1.04 ± 0.021 |
| TTATTGGGTC | 1.002 ± 0.01 |
| TTATTGGTAA | 1.0091 ± 0.00034 |
| TTATTGTAAT | 1.029 ± 0.0099 |
| TTATTGTGCG | 1.03 ± 0.034 |
| TTATTTATCG | 0.987 ± 0.026 |
| TTATTTATTC | 1.03 ± 0.037 |
| TTATTTGGTC | 1 ± 0.056 |
| TTATTTGTTA | 1.01 ± 0.041 |
| TTATTTTGGG | 0.99 ± 0.037 |
| TTCAAAATCT | 1.04 ± 0.019 |
| TTCAAAGACT | 1.02 ± 0.049 |
| TTCAAATCCC | 1.005 ± 0.0094 |
| TTCAACTGGT | 0.996 ± 0.022 |
| TTCAAGCAAG | 1.15 ± 0.015 |
| TTCAAGGAGT | 1.028 ± 0.0017 |
| TTCAAGTGTA | 1.01 ± 0.022 |

| Sequence | switch fluorescence ratio |
| --- | --- |
| TTCAATCTGT | 0.968 ± 0.064 |
| TTCAATGTTT | 0.978 ± 0.049 |
| TTCACAACCT | 1.77 ± 0.36 |
| TTCACACTA | 1.07 ± 0.044 |
| TTCACCCGTC | 0.971 ± 0.023 |
| TTCACCGGCA | 1.079 ± 0.0089 |
| TTCACGCTAG | 1.0378 ± 0.00056 |
| TTCACGGGTC | 1.06 ± 0.06 |
| TTCACTCTTT | 1.017 ± 0.0099 |
| TTCAGCGATG | 1.024 ± 0.0081 |
| TTCAGCTTGG | 0.99 ± 0.015 |
| TTCAGGATGG | 1.02 ± 0.017 |
| TTCAGGGCGC | 1.03 ± 0.053 |
| TTCAGGGCTT | 0.986 ± 0.036 |
| TTCAGGGGCA | 1.08 ± 0.033 |
| TTCAGGGGGC | 1.02 ± 0.014 |
| TTCAGGGGTA | 1.02 ± 0.033 |
| TTCAGGGGTT | 1.04 ± 0.068 |
| TTCAGGTATG | 1.01 ± 0.028 |
| TTCAGGTGGC | 1.18 ± 0.17 |
| TTCAGGTGTG | 1.142 ± 0.0073 |
| TTCAGGTTTT | 0.99 ± 0.054 |
| TTCAGTATCA | 1.06 ± 0.061 |
| TTCAGTCGAG | 0.979 ± 0.02 |
| TTCAGTTTCG | 1.01 ± 0.027 |
| TTCATAAATT | 1.02 ± 0.023 |

| Sequence | switch fluorescence ratio |
| --- | --- |
| TTCATAGGCA | 1 ± 0.039 |
| TTCATAGTAC | 1.2 ± 0.22 |
| TTCATCGGGT | 1.01 ± 0.014 |
| TTCATGAATT | 0.9956 ± 0.0056 |
| TTCATGATTG | 0.999 ± 0.011 |
| TTCATGGACA | 0.99 ± 0.014 |
| TTCATGGTGG | 1.01 ± 0.052 |
| TTCATGTGGA | 1.017 ± 0.0047 |
| TTCATTAGGA | 1.01 ± 0.029 |
| TTCATTGGTG | 1.09 ± 0.035 |
| TTCCAAAAAA | 1.1 ± 0.04 |
| TTCCAATTAG | 0.968 ± 0.059 |
| TTCCAGAATT | 0.993 ± 0.051 |
| TTCCAGGTGG | 1.42 ± 0.14 |
| TTCCAGTAAT | 1.01 ± 0.024 |
| TTCCATTCGA | 0.992 ± 0.044 |
| TTCCATTGTA | 1.02 ± 0.031 |
| TTCCCACGGG | 1.64 ± 0.31 |
| TTCCCACTAC | 2.63 ± 0.086 |
| TTCCCACTAT | 1.023 ± 0.0078 |
| TTCCCAGATG | 1.81 ± 0.41 |
| TTCCCATGTT | 1 ± 0.012 |
| TTCCCGCGTA | 1.19 ± 0.13 |
| TTCCCGCTGT | 1.75 ± 0.023 |
| TTCCCGTCAG | 1.022 ± 0.0017 |
| TTCCCTTTGG | 1.01 ± 0.041 |

| Sequence | switch fluorescence ratio |
| --- | --- |
| TTCCCTTTTT | 1.03 ± 0.019 |
| TTCCGACTCT | 1.31 ± 0.014 |
| TTCCGACTTA | 1.14 ± 0.19 |
| TTCCGGCACT | 1.09 ± 0.029 |
| TTCCGGGATC | 1.91 ± 0.092 |
| TTCCGGGGCC | 0.9978 ± 0.0032 |
| TTCCGGGGGA | 1.08 ± 0.11 |
| TTCCGGGGTT | 1.03 ± 0.022 |
| TTCCGGGTTT | 1.2 ± 0.31 |
| TTCCGGTAAT | 1.23 ± 0.033 |
| TTCCGTATGA | 1.05 ± 0.043 |
| TTCCGTCACG | 1.08 ± 0.043 |
| TTCCGTTGTG | 0.98 ± 0.049 |
| TTCCTAATTG | 1.01 ± 0.012 |
| TTCCTACAAG | 1.06 ± 0.014 |
| TTCCTAGTCT | 1.27 ± 0.19 |
| TTCCTTAGTC | 1.019 ± 0.0045 |
| TTCCTTGGGT | 1.01 ± 0.017 |
| TTCCTTGGTA | 1.04 ± 0.038 |
| TTCCTTTCAA | 1.228 ± 0.012 |
| TTCCTTTTTA | 1.02 ± 0.015 |
| TTCCTTTTTT | 1.03 ± 0.065 |
| TTCGAACACG | 0.994 ± 0.028 |
| TTCGAACTCG | 1.011 ± 0.0043 |
| TTCGAAGCAC | 2.74 ± 1.7 |
| TTCGAAGTTG | 0.999 ± 0.034 |

| Sequence | switch fluorescence ratio |
| --- | --- |
| TTCGAATGGT | 0.9724 ± 0.0062 |
| TTCGAATTAG | 2.28 ± 1.7 |
| TTCGACCGTG | 0.997 ± 0.033 |
| TTCGAGACGG | 0.98 ± 0.025 |
| TTCGAGAGTA | 1.05 ± 0.1 |
| TTCGAGAGTG | 0.945 ± 0.054 |
| TTCGAGGAGA | 1.01 ± 0.011 |
| TTCGAGGAGG | 0.981 ± 0.017 |
| TTCGAGTATT | 0.99 ± 0.019 |
| TTCGAGTCTT | 0.9742 ± 0.0083 |
| TTCGAGTTGT | 1.006 ± 0.0025 |
| TTCGATACTT | 0.9922 ± 0.0059 |
| TTCGATTTGG | 1.03 ± 0.0072 |
| TTCGCGGTCT | 1.11 ± 0.13 |
| TTCGCGTTAG | 1.23 ± 0.29 |
| TTCGGAATTT | 0.9882 ± 0.0083 |
| TTCGGAGGGT | 0.9899 ± 0.0088 |
| TTCGGAGTTA | 1.09 ± 0.12 |
| TTCGGCACGT | 1.01 ± 0.021 |
| TTCGGCAGTG | 1.022 ± 0.0079 |
| TTCGGCCCGA | 1.01 ± 0.039 |
| TTCGGCCGGT | 0.998 ± 0.011 |
| TTCGGCGGGT | 1.03 ± 0.025 |
